Measurements as given in publication PMC10526274, “Epithelial-Immune Cell Crosstalk Determines the Activation of Immune Cells In Vitro by the Human Cathelicidin LL-37 at Low Physiological Concentrations” (Biomolecules, 2023).

System: Caco-2 polarized monolayer
Assay: Bidirectional transport of FITC-LL-37 through the Caco-2 epithelial monolayer
Format: in vitro ADME, human
Method: Caco-2 cell line (ATCC HTB-37) was cultured in a humidified CO2-incubator (5% CO2, 37 °C) in the complete DMEM/F12 (1:1) medium (Gibco, Waltham, MA, USA) containing 10% fetal bovine serum (FBS, Gibco) and 1X antibiotic–antimycotic solution (Gibco). To stabilize the cell phenotype, Caco-2 cells have been subcultivated three times before seeding on the filter supports. Then, Caco-2 cells were seeded at a density of 2 × 10^5 cells/cm^2 onto 24-well Millicell cell culture inserts (PC, 0.4-μm pore size, 0.6 cm^2 surface area, cat. #PIHP01250) (Millipore, Burlington, MA, USA), precoated with 0.2% bovine gelatin (Sigma-Aldrich, Saint Louis, MO, USA). After seeding, Caco-2 cells were grown in the same complete medium with re-feeding every 2–3 days until polarization of the monolayer occurred. The functional polarity of the monolayers was developed when transepithelial electrical resistance (TEER) between the apical and basolateral surfaces of the monolayers reached […] as measured by the electrical resistance system Millicell-ERS Voltohmmeter (Millipore, Burlington, MA, USA). Grown cell monolayers were used in transport and cytokine production experiments between the 21st and 29th days.
LL-37 was labeled with fluorescein isothiocyanate isomer I (FITC) (Sigma-Aldrich). For coupling with FITC, 0.5 mg of LL-37 in 50 µL of DMSO was first mixed with 200 µL of the carbonate–bicarbonate coupling buffer (0.1 M sodium carbonate, 0.1 M sodium bicarbonate, pH 10.4). Then, 4 mg of FITC in 200 µL of DMSO was added to the solution, and the resultant mixture was incubated in the dark at room temperature (20–22 °C) for 2 h. FITC-LL-37 was purified by using a PD10 gel-filtration column (GE Healthcare, Chicago, IL, USA) pre-equilibrated with PBS.
The penetration capability of FITC-LL-37 was investigated using Caco-2 cells as an in vitro model of the intestinal epithelial barrier, grown on permeable Millicell cell culture inserts. Transport of the compound from both sides of the monolayer was determined in the transport buffer (Hank’s balanced salt solution, containing 25 mM HEPES, 1 mM MgCl2, 1 mM CaCl2, and 10 mM D(+)glucose, pH 7.4). […]
Transfer of LL-37 through Caco-2 monolayers under steady-state conditions was evaluated mathematically for each direction and each insert by the apparent permeability coefficient (Papp), calculated according to the following Equation (1): Papp = ΔC/Δt × (V/(A × Ci))(1) where ΔC/Δt is the solute flux (nM/s) across the barrier, V is the volume of the acceptor chamber, A is the effective filter area of the well (cm^2), and Ci is the initial concentration of the donor solution (nM). […]

LL-37: the only human cathelicidin, host defense antimicrobial peptide of 37 a.a. residues, produced by solid-phase peptide synthesis
Apparent permeability (Papp) B → A (secretory) (Caco-2 (ATCC HTB-37) on Millicell PC inserts, day 21-29, TEER 400, basolateral-to-apical, FITC-labeled LL-37, 5 µM donor, HBSS, 25 mM HEPES, pH 7.4 both sides, 37 °C, 90 min, range over 4 independent inserts): 1.7–2.1 × 10^−6 cm/s
Uptake ratio (UR) = Papp(A → B)/Papp(B → A) (Caco-2, FITC-labeled LL-37 5 µM, pH 7.4, 90 min): 0.51
Efflux ratio (ER) = Papp(B → A)/Papp(A → B) (Caco-2, FITC-labeled LL-37 5 µM, pH 7.4, 90 min, no inhibitor): 1.95
Predicted absorption in the human gut (predicted from Caco-2 Papp A → B by the classification of ref 20): 0–20%
